Reference: patent publication US20240058478A1, “FOLATE RECEPTOR-TARGETED CONJUGATES, COMPOSITIONS, AND DELIVERY TO THE CENTRAL NERVOUS SYSTEM” (PURDUE RESEARCH FOUNDATION, priority 2021, published 2024)

What was measured:
[1] = tested on: folate receptor-positive cells; assay: FRES uptake in SCI: NIR imaging of transverse spinal cord sections, conjugate vs unconjugated dye; assay type: in vivo, Sprague Dawley rats; details: for NIR signal in the spinal cords: SCI rats, injected day 7 after injury, imaged day 8, conjugate vs unconjugated NIR dye
Procedure: Adult male Sprague Dawley rats were given a moderate grade SCI. The rats were injected with OTL38 or unconjugated NIR dye on day 7 after injury. On day 8, the spinal cords were removed and imaged for NIR signal.
FIGS. 11A-11B show transverse spinal cord sections of the rostral portions (FIG. 11A) and epicenters (FIG. 11B) of a rat with SCI and injected seven days after injury with OTL38. […] The results are shown in FIG. 11D, which is a bar graph of mean fluorescence intensity vs. rostral portion and epicenter showing OTL38 uptake (students t-test, **p<0.01).

[2] = biological target: T1, folate receptors on cells of the choroid plexus (Mus musculus, UniProt P35846); assay: Transport of folate conjugates across blood-cerebrospinal fluid barrier: NIR imaging of brain/choroid plexus; assay type: in vivo, B6 male mice
T1 construct: the uptake of OTL38 is mediated by folate receptors on cells of the choroid plexus; from tissue; host or cells: choroid plexus of live B6 male mice (in vivo, ex vivo NIR imaging of brain)
T1 sequence (P35846 25-232): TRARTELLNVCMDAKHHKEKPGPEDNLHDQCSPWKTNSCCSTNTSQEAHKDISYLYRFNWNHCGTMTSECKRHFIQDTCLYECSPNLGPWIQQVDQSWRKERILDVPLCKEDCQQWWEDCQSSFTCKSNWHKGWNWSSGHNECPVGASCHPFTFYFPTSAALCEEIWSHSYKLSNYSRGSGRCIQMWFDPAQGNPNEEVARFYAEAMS
Source text: Corresponding ventral side of the spinal cords are shown to the left of each brain. […] Green fluorescence indicates OTL38 signal. […] In the middle column (OTL38+Fol-Glu, n=4) minimal uptake is observed. In the far-right corner, Control (non-injected, n=1), no signal is observed. FIG. 9 is a graph of mean fluorescent intensity vs. time for CSF and blood. n=1-4 rats/timepoint.
B6 male mice were given an intravenous tail injection of a folate-fluorescent near infrared (NIR) dye conjugate (i.e., OTL38) and imaged. […] Corresponding ventral side of the spinal cords are shown to the left of each brain. […] Green fluorescence indicates OTL38 signal. […] In the middle column (OTL38+Fol-Glu, n=4) minimal uptake is observed. In the far right corner, Control (non-injected, n=1), no signal is observed.

[3] = Persistence of folate conjugate: NIR signal in blood and CSF over time; assay type: in vivo, Sprague Dawley rats; details: rats
Procedure: Adult male Sprague Dawley rats were injected with OTL38. Blood and cerebrospinal fluid (CSF) were then extracted at the same time at various timepoints and imaged. […] The data also indicate that the exposure of the CNS to the payload is extended over time.
FIG. 9 is a graph of mean fluorescent intensity vs. time for CSF and blood. n=1-4 rats/timepoint.

[4] = tested on: rats with controlled cortical impact (CCI) injuries; assay: FRES uptake in controlled cortical impact (CCI) injury: NIR imaging of the cortex surface; assay type: in vivo, Sprague Dawley rats; details: intravenous injection ten days after CCI injury, imaged next day
Source text: Adult male Sprague Dawley rats were given moderate grade controlled cortical impact (CCI) injuries. This injury represents concussion of the brain cortex, which is a more common injury in humans than laceration of the brain cortex. The impactor was circular and 6 mm in diameter. The rats were intravenously injected with OTL38 ten days after injury. The next day the rats were sacrificed, and the surfaces of the cortexes were imaged. […] The yellow arrow points to signal on the dorsal surface of the spinal cord.

eye [5] = details: rat, in vivo
Procedure: An adult male Sprague Dawley rat was intravenously injected with OTL38 and imaged 24 hours later. […] Red and green colors indicate signal from the dye, with red showing the most intense regions.

eye [6] = details: mouse, in vivo
Procedure: Given the extensive time that OTL38 remained in the eyes, signal in the presence of the folate competitor folate-glucosamine (Fol-Glc) was tested. Healthy, wild-type mice were injected with 10 nmols OTL38. Some mice were subsequently injected with Fol-Glc. All mice were subsequently sacrificed and examined in comparison to noninjected mice.

[7] = tested on: folate receptor-positive cells; assay: FRES uptake in spinal cord contusion injury (SCI): ex vivo NIR imaging of spinal cords; set-up: species or system Sprague Dawley rats; details: SCI rats
Procedure: Adult male Sprague Dawley rats were given a moderate grade spinal cord contusion injury (SCI). The rats were injected with OTL38 or simultaneously with OTL38 and Fol-Glu on day 7 after injury. On day 8, the spinal cords were removed and imaged for NIR signal.
NR signal is represented by green and red colors, with red showing areas of high intensity. Blue arrows point to the epicenter of the SCI. “R” indicates the rostral portion of the spinal cord.

[8] = tested on: rats with cortex laceration of the left hemisphere; assay: FRES uptake in cortex laceration: NIR imaging of the cortex; assay type: in vivo, Sprague Dawley rats; details: injected seven days after cortex laceration, brains removed next day
Procedure: Adult male Sprague Dawley rats were given brain injuries by cortex laceration of the left hemisphere using a small ophthalmic knife. Seven days after injury, the rats were injected with OTL38. The brains were removed the next day, and the cortexes were imaged.
FIGS. 13A-13B show a precise surface laceration injury in the cortex of the left hemisphere of the brain. FIG. 13A is a cartoon indicating the area of injury (blue circle) and the area imaged (blue rectangle). […] The right hemisphere cortex served as an internal control (uninjured, no signal).
Choroid plexus cells in the ventricles produce CSF and are the site of FRES release into the subarachnoid space, where the brain and spinal cord continue to be perfused. The 4th ventricle and lateral recess contain choroid plexus cells and are the site of outflow for newly produced CSF. The intense signal below the cerebellum (blue arrow) is a result of concentrated choroid plexus cells and FRES/new CSF production and entry for CNS perfusion. […] The opposite hemisphere represents an internal control with no areas of enhanced signal.

Compound	NIR signal in the spinal cords [1]	NIR signal in the choroid plexus, co-injected with Fol-Glu ([2]; mice co-injected with OTL38 and folate-glucosamine conjugate (Fol-Glu), competitor for folate receptors)	NIR signal in the choroid plexus ([2]; mice, intravenous tail injection, 24 hours after injection)	NIR signal in the blood relative to that of the CSF ([3]; four hours post-injection and all subsequent timepoints)	NIR signal in the blood relative to that of the CSF ([3]; two hours post-injection, blood exceeded CSF)	NIR signal at the CCI injury [4]	Mean fluorescence intensity, epicenter vs rostral region ([1]; SCI rat, transverse spinal cord sections, students t-test **p<0.01)	Uptake in the retina, eye slices (eye [5])	NIR signal at the eye, live imaging (eye [5]; iv)	OTL38 signal (mean fluorescence intensity) in eyes after administration of Fol-Glc (eye [6])	NIR signal in the spinal cords, injected simultaneously with Fol-Glu ([7]; OTL38+Fol-Glu on day 7 after injury, imaged day 8)	NIR signal in the spinal cords ([7]; injected day 7 after injury, spinal cords imaged day 8)	NIR signal around the choroid plexus [8]	NIR signal at the cortex injury ([8]; uninjured right hemisphere no signal)
CC1(C)C(/C=C/C2=C(Cl)C(=C/C=C3/N(CCCCS(=O)(=O)[O-])c4ccc(S(=O)(=O)[O-])cc4C3(C)C)/CCC2)=[N+](CCCCS(=O)(=O)[O-])c2ccc(S(=O)(=O)[O-])cc21.[Na+].[Na+].[Na+] [unconjugated NIR dye]	lack of signal	–	–	–	–	–	–	–	–	–	–	–	–	–
OTL38	Signal was observed	noticeable reduction in signal	Strong signal	dropped and remained lower than that of the CSF	nearly two-fold	positive targeting of the 6 mm circular injury	significant increase in signal in the epicenter as compared to the rostral region	strong OTL38 uptake in the area of the retina	intense red signal at the eye	reduced	lack of signal	Strong signal	Increased signal around the choroid plexus	enhanced signal around the injury area
